Laboratory results taken from patent publication US6670114 (N V INNOGENETICS, dated 2003).

Target: T1, LDL (purified human low-density lipoprotein, Cappel) (human, UniProt P04114 28-4563)
T1 construct: This is a lipoprotein particle, not a single protein; also called solid phase LDL
Assay: ELISA: biotinylated envelope protein on coated LDL, streptavidin-peroxidase

B1: E2s (recombinant truncated HCV envelope protein E2, aa 384-673, genotype 1b) (other)
chain: HTRVSGGAAASNTRGLVSLFSPGSAQKIQLVNTNGSWHINRTALNCNDSLQTGFFAALFYKHKFNSSGCPERLASCRSIDKFAQGWGPLTYTEPNSSDQRPYCWHYAPRPCGIVPASQVCGPVYCFTPSPVVVGTTDRFGVPTYNWGANDSDVLILNNTRPPRGNWFGCTWMNGTGFTKTCGGPPCNIGGAGNNTLTCPTDCFRKHPEATYARCGSGPWLTPRCMVHYPYRLWHYPCTVNFTIFKVRMYVGGVEHRFGAACNWTRGERCDLEDRDRSELSPLLLSTTEWQ
modifications: biotinylated (sites not given)
notes: also called biotinylated E2
B1: no binding.
